Measured values reported in patent US9987242B2, “Treatment of Levodopa-induced Dyskinesias” (NORTHWESTERN UNIVERSITY, priority 2015, dated 2018).
Entries after “also recorded” stand apart in the source; their conditions may differ.

Columns and labels:
PD disability = experiment: Primate PD disability (anti-parkinsonian effect of L-DOPA); type: in vivo; conditions: with L-DOPA; n=4; p>0.05
Description: (§1) FIG. 18. […] Data are represented as median.

[1] = test system: primate dyskinetic scores; experiment: Primate dyskinesia scores; type: in vivo; conditions: with L-DOPA; n=4
Description: FIG. 12. Plot of sum of primate dyskinesia scores (median) as a function of time (Fr=11.64, n=4; p<0.01, Friedman's test).
as §1

iSPNs = experiment: Spike-timing-dependent LTD induction (post-pre pairing) in iSPNs, ex vivo slices; type: cell-based, mice; conditions: MT3 100 nM
Procedure: Mice were deeply anesthetized intraperitoneally with a mixture of ketamine (50 mg kg−1) and xylazine (4 mg kg−1) and perfused transcardially with 5-10 ml of ice-cold artificial CSF (aCSF) comprising (in mM): 125 NaCl, 2.5 KCl, 1.25 NaH2PO4, 2.0 CaCl2, 1.0 MgCl2, 26 NaHCO3 and 10 glucose (305 mOsm l^−1). Parasagittal corticostriatal slices (250 μm) were cut in ice-cold external solution containing (mM) 110 choline chloride, 26 NaHCO3, 1.25 NaH2PO4, 2.5 KCl, 0.5 CaCl2, 7 MgCl2, 11.6 sodium ascorbate, 3.1 sodium pyruvate and 5 glucose (305 mOsm l^−1). Slices were then transferred to a holding chamber containing aCSF. After an incubation period at 34° C. for 30 min, the slices were then kept in the holding chamber at the room temperature for another 30 min before use.
(§2) To determine if M4Rs were modulating synaptic plasticity, a spike-timing-dependent plasticity (STDP) paradigm was used. […] Once identified, neurons were monitored and controlled with perforated-patch recording to preserve intracellular signaling mechanisms and to allow stable, long-term monitoring of synaptic strength (FIG. 1A).

[2] = test system: dSPN glutamatergic synapses; experiment: Spike-timing-dependent LTD induction (post-pre pairing) in dSPNs, ex vivo corticostriatal slices, perforated-patch or whole-cell recording; type: cell-based, mice
Description: Male C57Bl/6 and FVB mice expressing tdTomato or eGFP under control of either the Drd1 or Drd2 receptor regulatory elements were used. All the mice used for the study were hemizygous for these transgenes. For some experiments, D1-tdTomato BAC mice were crossed with a transgenic line expressing Cre recombinase under control of the ChAT promoter. All mice were 8-10 weeks of age before stereotaxic surgery. Animal use procedures were reviewed and approved by the Northwestern Institutional Animal Care and Use Committee.
Slices were then transferred to a holding chamber containing aCSF. After an incubation period at 34° C. for 30 min, the slices were then kept in the holding chamber at the room temperature for another 30 min before use.
Individual slices were transferred to a recording chamber and were continuously perfused (2-3 ml min^−1) with aCSF for the duration of the experiment. Experiments were performed in the dorsolateral striatum at elevated temperature (30-31° C.).
All the recordings were made using a MultiClamp 700 A amplifier, and signals were filtered at 2 kHz and digitized at 10 kHz. Data were excluded when the series resistance changed >20% over the time course of the experiment. […] Capacitance current was continuously monitored during perforation by applying a 5-10 mV pulse from a holding potential of −70 mV. The amplifier bridge circuit was adjusted to compensate for series resistance and continuously monitored during recordings. Electrode capacitance was also compensated. Data were excluded when the input resistance (Ri) changed >20% over the time course of the experiment.
Data analysis was conducted with Igor Pro 6 (Wavemetrics, Lake Oswego, Oreg.) and Clampfit 9 (Molecular Devices). EPSP amplitude was calculated from 50-60 sweeps immediately before the start of induction and 20-30 min after the end of induction. The change in EPSP amplitude was calculated by averaging EPSP values after the induction and normalized to the average baseline EPSP amplitude. Compiled data were expressed as mean±s.e.m. Statistical tests were performed using Excel (Microsoft, Redmond, Wash.) and SigmaStat (Systat, San Jose, Calif.). Non-parametric Mann-Whitney or Wilcoxon tests were used to assess the experiment results, using a probability threshold of 0.05.
as §2
Synaptic plasticity was induced by pairing local stimulation of glutamatergic afferent fibers with postsynaptic spikes evoked by short bursts of intracellular current injection that were repeated at 5 Hz (FIGS. 1B, 4A).

| Molecule | anti-parkinsonian effect of L-DOPA on PD disability (PD disability) | primate dyskinetic scores [1] | LTD induction in iSPNs (iSPNs) | LTD induction in dSPNs ([2]; MT3 100 nM with CNO) | LTD induction in dSPNs (EPSP amplitude) ([2]; MT3 100 nM with physostigmine 10 μM + VU10010 5 μM, 20 repetitions) | LTD induction in dSPNs (EPSP amplitude) ([2]; post-pre pairing, MT3 100 nM along with SCH23390) |
| --- | --- | --- | --- | --- | --- | --- |
| Cc1nnc2sc(C(=O)NCc3ccc(-c4cccnc4F)cc3)c(N)c2c1C [VU0476406] | did not occur at the expense of anti-parkinsonian effect of L-DOPA | reduction in primate dyskinetic scores |  |  |  |  |
| muscarinic toxin 3 (protein, UniProt P81031 1-65, looked up) Muscarinic toxin 3: LTCVTKNTIFGITTENCPAGQNLCFKRWHYVIPRYTEITRGCAATCPIPENYDSIHCCKTDKCNE |  |  | LTD was induced | LTD was blunted | induction was blunted | blocked induction of LTD; also recorded: LTD was disrupted |
